Where a chain is given by its changes, count along the chain named.
Columns and labels:
Type in all cases: biochemical, Z. mays
[1] = test system: 4-hydroxyphenylpyruvate dioxygenase (HPPD); experiment: Insensitivity parameter (ON × OFF) and trait fitness (ON × OFF × kcat/KM or × kcat); parameters: key to ON × OFF / Insensitivity, mesotrione, ON × OFF / Insensitivity, tembotrione, ON × OFF / Insensitivity, topramezone, ON × OFF / Insensitivity, sulcotrione, ON × OFF / Insensitivity, isoxaflutole (DKN), ON × OFF: insensitivity = ON rate ratio × OFF rate ratio (surrogate for KD); conditions: for ON × OFF × kcat, Value / ON × OFF × kcat, Fold vs wt / ON × OFF, fold vs wt / ON × OFF (parameters with tembotrione): Table 5; for ON × OFF × kcat, Fold vs wt / ON × OFF, fold vs wt: fold vs maize wild type HPPD; for ON × OFF (parameters with tembotrione): insensitivity parameter
In short: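 Trait fitness combines catalysis and insensitivity as kcat/KM × ON rate ratio × OFF rate ratio. The insensitivity parameter is the product of ON and OFF rate ratios, used in place of KD because the ON rate ratio is inverse.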

[2] = test system: 4-hydroxyphenylpyruvate dioxygenase (HPPD); experiment: Estimate of kcat from initial rate at saturating hydroxyphenylpyruvate without inhibitor (ON rate ratio assay)
In short: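 kcat was estimated from the initial reaction rate with known enzyme level (60 or 120 nM HPPD). Hydroxyphenylpyruvate was at a saturating 100 μM, with no inhibitor present.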

[3] = test system: 4-hydroxyphenylpyruvate dioxygenase (HPPD); experiment: OFF rate ratio: release of inhibitor from pre-formed enzyme-inhibitor complex; conditions: for OFF ratio (parameters with tembotrione): Table 5
In short: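 Inhibitor release from pre-formed complex (enzyme 7.2 μM, inhibitor 8 μM, 1 h RT) tracked as accelerating HPPD activity at 320 nm over 12 min, coupled via 50 nM HGD with 100 μM HPP at pH 7. OFF rate ratio: steady-state velocity relative to uninhibited initial velocity.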

[4] = test system: 4-hydroxyphenylpyruvate dioxygenase (HPPD); experiment: HPPD activity coupled assay with HGD; substrate saturation kinetic parameters (kcat, KM)
In short: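 Coupled continuous assay: His-tagged HPPD (5 to 240 nM, E. coli-expressed, Ni-NTA-purified) with 50 nM P. aeruginosa HGD in 25 mM Hepes pH 7, 2 mM ascorbate, 10 μM FeSO4; maleylacetoacetate followed at 320 nm. KM and Vmax from Lineweaver-Burke fits over 3.33–100 μM HPP.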

[5] = test system: 4-hydroxyphenylpyruvate dioxygenase (HPPD); experiment: ON rate ratio: HPPD reaction rate with vs without inhibitor in the 70 to 90 second interval; conditions: for ON ratio (parameters with tembotrione): Table 5
In short: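 Indicator of inhibitor on-rate: reaction velocity in the 70 to 90 second window with 4 μM inhibitor divided by that without. Reactions contained 100 μM HPP and 60 or 120 nM HPPD; slower binding gives a larger ratio.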

[6] = DKN (diketonitrile form of isoxaflutole)
[7] = Table 5, single substitutions in Round 7 variant 9070 (SEQ ID NO:2), estimate from initial rate at saturating hydroxyphenylpyruvate without inhibitor
[8] = Table 6, single substitutions in SEQ ID NO:2
[9] = Table 7, tembotrione, combinatorial variants
[10] = substrate saturation kinetic analysis

B1: 189P: single substitution 189P in SEQ ID NO:2 (protein)
chain: MGPTPTATAAGAAVAAASAAEQAAFRLVGHRNFVRFNPRSDRFQTLAFHHVELWCADAASAAGRFSFALGVPLAARSDLSTGNSAHASLLLRSGSLSLLFTAPYAHGADAATAALPSFSAAAARRFAADHGLAVRAVALRVADAEDAFRASVAAGARPAFGPVDLGRGFRLAEVELYGDVVLRYVSYPPGAAGEPFLPGFEGVASPGAADYGLSRFDHIVGNVPELAPAAAYMAGFTGFHEFAEFTTEDVGTTESGLNSMALANNSENVLLPLNEPVHGTKRRSQIQTFLDHHGGPGVQHIALASDDVLRTLREMRARSAMGGFEFLPPPLSDYYDGVRRCAGDVLTEAQINECQELGVMVDRDDQGVLLQIFTKPVGDRPTFFLEIIQRIGCMEKDEKGQEYQKGGCGGFGKGNFGQLFKSIEDYEKSLEAKQAAAAATAQGS
modifications: Zea mays variant form created by artificial means.
- Insensitivity parameter, ON × OFF [1, 6]: 0.32
- Insensitivity parameter, ON × OFF ([1]; Mesotrione, Table 6): 0.51
- Insensitivity parameter, ON × OFF ([1]; Sulcotrione): 0.62
- ON × OFF × kcat, Value ([1]; tembotrione): 4.31
- ON × OFF × kcat, Fold vs wt ([1]; tembotrione): 4.02
- ON × OFF, fold vs wt ([1]; tembotrione): 32.3
- ON × OFF (parameters with tembotrione) ([1]; tembotrione): 0.16
- Insensitivity parameter, ON × OFF ([1]; Tembotrione): 0.25
- Insensitivity parameter, ON × OFF ([1]; Topramezon): 0.31
- kcat [2, 7]: 0.437 s⁻¹
- OFF ratio (parameters with tembotrione) ([3]; tembotrione): 0.22
- Km ([4]; Table 6): 3.35 µM
- kcat [4, 8]: 0.697 s⁻¹
- ON ratio (parameters with tembotrione) ([5]; tembotrione): 0.76

B2: 205T: single substitution 205T in SEQ ID NO:2 (protein)
chain: B1 chain with P189D, S205T
modifications: Zea mays variant form created by artificial means.
- Insensitivity parameter, ON × OFF [1, 6]: 0.30
- Insensitivity parameter, ON × OFF ([1]; Mesotrione, Table 6): 0.47
- Insensitivity parameter, ON × OFF ([1]; Sulcotrione): 0.60
- ON × OFF × kcat, Value ([1]; tembotrione): 3.72
- ON × OFF × kcat, Fold vs wt ([1]; tembotrione): 3.48
- ON × OFF, fold vs wt ([1]; tembotrione): 29.0
- ON × OFF (parameters with tembotrione) ([1]; tembotrione): 0.15
- Insensitivity parameter, ON × OFF ([1]; Tembotrione): 0.22
- Insensitivity parameter, ON × OFF ([1]; Topramezon): 0.29
- kcat [2, 7]: 0.418 s⁻¹
- OFF ratio (parameters with tembotrione) ([3]; tembotrione): 0.20
- Km ([4]; Table 6): 2.72 µM
- kcat [4, 8]: 0.573 s⁻¹
- ON ratio (parameters with tembotrione) ([5]; tembotrione): 0.74

B3: 431F: single substitution 431F in SEQ ID NO:2 (protein)
chain: B1 chain with P189D, E431F
modifications: Zea mays variant form created by artificial means.
- Insensitivity parameter, ON × OFF [1, 6]: 0.26
- Insensitivity parameter, ON × OFF ([1]; Mesotrione, Table 6): 0.53
- Insensitivity parameter, ON × OFF ([1]; Sulcotrione): 0.59
- ON × OFF × kcat, Value ([1]; tembotrione): 3.61
- ON × OFF × kcat, Fold vs wt ([1]; tembotrione): 3.37
- ON × OFF, fold vs wt ([1]; tembotrione): 24.5
- ON × OFF (parameters with tembotrione) ([1]; tembotrione): 0.13
- Insensitivity parameter, ON × OFF ([1]; Tembotrione): 0.19
- Insensitivity parameter, ON × OFF ([1]; Topramezon): 0.27
- kcat [2, 7]: 0.482 s⁻¹
- OFF ratio (parameters with tembotrione) ([3]; tembotrione): 0.16
- Km ([4]; Table 6): 1.77 µM
- kcat [4, 8]: 0.513 s⁻¹
- ON ratio (parameters with tembotrione) ([5]; tembotrione): 0.80

B4: 342V: single substitution 342V in SEQ ID NO:2 (protein)
chain: B1 chain with P189D, A342V
modifications: Zea mays variant form created by artificial means.
- Insensitivity parameter, ON × OFF [1, 6]: 0.22
- Insensitivity parameter, ON × OFF ([1]; Mesotrione, Table 6): 0.42
- Insensitivity parameter, ON × OFF ([1]; Sulcotrione): 0.51
- ON × OFF × kcat, Value ([1]; tembotrione): 4.08
- ON × OFF × kcat, Fold vs wt ([1]; tembotrione): 3.82
- ON × OFF, fold vs wt ([1]; tembotrione): 19.7
- ON × OFF (parameters with tembotrione) ([1]; tembotrione): 0.10
- Insensitivity parameter, ON × OFF ([1]; Tembotrione): 0.17
- Insensitivity parameter, ON × OFF ([1]; Topramezon): 0.23
- kcat [2, 7]: 0.677 s⁻¹
- OFF ratio (parameters with tembotrione) ([3]; tembotrione): 0.13
- Km ([4]; Table 6): 2.59 µM
- kcat [4, 8]: 0.903 s⁻¹
- ON ratio (parameters with tembotrione) ([5]; tembotrione): 0.78

B5: 227G: single substitution 227G in SEQ ID NO:2 (protein)
chain: B1 chain with P189D, A227G
modifications: Zea mays variant form created by artificial means.
- Insensitivity parameter, ON × OFF [1, 6]: 0.26
- Insensitivity parameter, ON × OFF ([1]; Mesotrione, Table 6): 0.52
- Insensitivity parameter, ON × OFF ([1]; Sulcotrione): 0.63
- ON × OFF × kcat, Value ([1]; tembotrione): 4.09
- ON × OFF × kcat, Fold vs wt ([1]; tembotrione): 3.83
- ON × OFF, fold vs wt ([1]; tembotrione): 23.2
- ON × OFF (parameters with tembotrione) ([1]; tembotrione): 0.12
- Insensitivity parameter, ON × OFF ([1]; Tembotrione): 0.22
- Insensitivity parameter, ON × OFF ([1]; Topramezon): 0.28
- kcat [2, 7]: 0.577 s⁻¹
- OFF ratio (parameters with tembotrione) ([3]; tembotrione): 0.15
- Km ([4]; Table 6): 2.61 µM
- kcat [4, 8]: 0.755 s⁻¹
- ON ratio (parameters with tembotrione) ([5]; tembotrione): 0.79

B6: 191L: single substitution 191L in SEQ ID NO:2 (protein)
chain: B1 chain with P189D, A191L
modifications: Zea mays variant form created by artificial means.
- Insensitivity parameter, ON × OFF [1, 6]: 0.38
- Insensitivity parameter, ON × OFF ([1]; Mesotrione, Table 6): 0.45
- Insensitivity parameter, ON × OFF ([1]; Sulcotrione): 0.56
- ON × OFF × kcat, Value ([1]; tembotrione): 3.35
- ON × OFF × kcat, Fold vs wt ([1]; tembotrione): 3.13
- ON × OFF, fold vs wt ([1]; tembotrione): 30.5
- ON × OFF (parameters with tembotrione) ([1]; tembotrione): 0.16
- Insensitivity parameter, ON × OFF ([1]; Tembotrione): 0.33
- Insensitivity parameter, ON × OFF ([1]; Topramezon): 0.37
- kcat [2, 7]: 0.358 s⁻¹
- OFF ratio (parameters with tembotrione) ([3]; tembotrione): 0.20
- Km ([4]; Table 6): 2.74 µM
- kcat [4, 8]: 0.548 s⁻¹
- ON ratio (parameters with tembotrione) ([5]; tembotrione): 0.77

B7: P056028-F-05 (protein)
chain: B1 chain with P189D, A191G, Q366E
modifications: Zea mays variant form created by artificial means.
- ON × OFF ([1]; Megatable 3, shuffled variants): 0.276
- ON × OFF × kcat ([1]; Megatable 3, shuffled variants): 7.57
- ON × OFF [1, 9]: 0.276
- ON × OFF × kcat [1, 9]: 7.57
- Insensitivity, mesotrione, ON × OFF ([1]; inhibitor mesotrione): 0.64
- Insensitivity, mesotrione, Trait Fitness ([1]; inhibitor mesotrione): 8.7
- Insensitivity, tembotrione, ON × OFF ([1]; inhibitor tembotrione): 0.28
- Insensitivity, tembotrione, Trait fitness ([1]; inhibitor tembotrione): 3.74
- kcat ([2]; Megatable 3, shuffled variants): 0.457 s⁻¹
- kcat ([2]; Table 7, combinatorial variants): 0.457 s⁻¹
- OFF rate ratio [3, 9]: 0.395
- Insensitivity, mesotrione, Rate ratio OFF ([3]; inhibitor mesotrione): 1.00
- Insensitivity, tembotrione, Rate ratio OFF ([3]; inhibitor tembotrione): 0.39
- Km [4, 10]: 2.39 µM
- kcat [4, 10]: 0.538 s⁻¹
- ON rate ratio [5, 9]: 0.700
- Insensitivity, mesotrione, Rate ratio ON ([5]; inhibitor mesotrione): 0.64
- Insensitivity, tembotrione, Rate ratio ON ([5]; inhibitor tembotrione): 0.70

B8: 214T: single substitution 214T in SEQ ID NO:2 (protein)
chain: B1 chain with P189D, S214T
modifications: Zea mays variant form created by artificial means.
- Insensitivity parameter, ON × OFF [1, 6]: 0.21
- Insensitivity parameter, ON × OFF ([1]; Mesotrione, Table 6): 0.41
- Insensitivity parameter, ON × OFF ([1]; Sulcotrione): 0.50
- ON × OFF × kcat, Value ([1]; tembotrione): 4.03
- ON × OFF × kcat, Fold vs wt ([1]; tembotrione): 3.76
- ON × OFF, fold vs wt ([1]; tembotrione): 20.2
- ON × OFF (parameters with tembotrione) ([1]; tembotrione): 0.10
- Insensitivity parameter, ON × OFF ([1]; Tembotrione): 0.17
- Insensitivity parameter, ON × OFF ([1]; Topramezon): 0.23
- kcat [2, 7]: 0.653 s⁻¹
- OFF ratio (parameters with tembotrione) ([3]; tembotrione): 0.14
- Km ([4]; Table 6): 2.94 µM
- kcat [4, 8]: 1.4 s⁻¹
- ON ratio (parameters with tembotrione) ([5]; tembotrione): 0.74
